Experimental data reported in CN109265548A (UNIV SOUTHEAST, dated 2019).

Legend:
PD-L2(人) = target: T1, PD-L2(人) (human, UniProt Q9BQ51 20-220, limits assumed); assay: ELISA, antigen coated 0.5 μg per well, detection with rabbit anti-HA and HRP goat anti-rabbit
T1 construct: also called 人PD-L2
T1 sequence (looked up): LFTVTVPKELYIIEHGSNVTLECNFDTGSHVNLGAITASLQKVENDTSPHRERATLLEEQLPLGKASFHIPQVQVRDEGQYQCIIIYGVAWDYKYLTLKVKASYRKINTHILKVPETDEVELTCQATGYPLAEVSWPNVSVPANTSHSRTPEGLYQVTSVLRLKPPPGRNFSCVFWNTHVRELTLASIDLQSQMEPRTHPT

PD-L1(鼠) = target: T2, PD-L1(鼠) (鼠 (murine), UniProt Q9EP73 19-239, limits assumed); assay: as above
T2 construct: also called 鼠源的PD-L1
T2 sequence (Q9EP73 19-239 limits assumed): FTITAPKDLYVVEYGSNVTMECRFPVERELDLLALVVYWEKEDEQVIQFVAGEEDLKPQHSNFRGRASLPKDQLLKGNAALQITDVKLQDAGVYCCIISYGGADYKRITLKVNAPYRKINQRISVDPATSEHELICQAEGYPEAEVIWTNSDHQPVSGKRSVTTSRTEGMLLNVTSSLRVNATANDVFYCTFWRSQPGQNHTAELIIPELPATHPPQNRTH

binding result (PD-L2(人)): no binding (tested: 10μg/mL)
binding result (PD-L1(鼠)): no binding (tested: 10μg/mL)
B1: 抗PD-L1Nb15 (VHH)
VHH: QVQLVESGGGSVQAGGALRLSCAASGYTSTSNCMGWFRQAPGKEREGVAAIYTGGGSTYYADSVKGRFTISQDNAKNTVYLQMNSLKPEDTAMYYCAAGDLDPAEYSDYDPTVFNYWGQGTLVTVSS
notes: Expressed from pET32a in E. coli BL21(DE3), purified on Ni-IDA and detected in ELISA with an anti-HA antibody; the vector-derived tags are not described; also called antiPD-L1Nb15; 抗PD-L1-VHH15
